Read-outs that look alike come from different tables or passages of the source.
Key:
Experiment in all cases: cell-based or functional assay
[1] = target: T1, human 4-1BB expressed on cells (Jurkat-hu4-1BB-NFκB-luc2 reporter cells; human T cells in PBMC) (human, UniProt Q07011 24-255)
[2] = target: T1, human 4-1BB expressed on cells …; remark: listed apart in the source
[3] = target: T1, human 4-1BB expressed on cells …; remark: listed apart in the source
[4] = target: T1, human 4-1BB expressed on cells …; design: unit not given beside the values

T1 sequence (Q07011 24-255): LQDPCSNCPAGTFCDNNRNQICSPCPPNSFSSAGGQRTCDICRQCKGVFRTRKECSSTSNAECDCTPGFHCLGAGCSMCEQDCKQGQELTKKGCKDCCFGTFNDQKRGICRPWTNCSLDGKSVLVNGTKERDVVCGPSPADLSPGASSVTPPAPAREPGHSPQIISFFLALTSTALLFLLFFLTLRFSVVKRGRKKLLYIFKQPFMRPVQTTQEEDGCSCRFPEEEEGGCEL

B1: anti-human 4-1BB clone 20H4.9 human IgG4 (antibody, V domains shown)
VH: QVQLQQWGAGLLKPSETLSLTCAVYGGSFSGYYWSWIRQSPEKGLEWIGEINHGGYVTYNPSLESRVTISVDTSKNQFSLKLSSVTAADTAVYYCARDYGPGNYDWYFDLWGRGTLVTVSS
VL: EIVLTQSPATLSLSPGERATLSCRASQSVSSYLAWYQQKPGQAPRLLIYDASNRATGIPARFSGSGSGTDFTLTISSLEPEDFAVYYCQQRSNWPPALTFCGGTKVEIKR
EC50 PBMC activation assay, % proliferating CD4, with NCI-N87 cells [1]: 0.01 nM | EC50 PBMC activation assay, % proliferating CD8, with NCI-N87 cells [1]: ~0.03 nM | EC50 of NFκB-activation-induced Luciferase activity, Jurkat-hu4-1BB-NFκB-luc2 reporter cells, with KPL-4 cells [2]: 0.02 nM | EC50 of NFκB-activation-induced Luciferase activity, Jurkat-hu4-1BB-NFκB-luc2 reporter cells, with NCI-N87 cells [2]: 0.02 nM | EC50 of NFκB-activation-induced Luciferase activity, Jurkat-hu4-1BB-NFκB-luc2 reporter cells, with SK-Br3 cells [2]: 0.01 nM | EC50 of NFκB-activation-induced Luciferase activity, Jurkat-hu4-1BB-NFκB-luc2 reporter cells, with NCI-N87 cells [3]: 0.14 nM | AUC above background, PBMC activation assay, % proliferating CD4 [4]: 10 | AUC above background, PBMC activation assay, % proliferating CD8 [4]: 16
